From patent publication US7977317B2, “Compositions and methods for modulating blood-brain barrier transport” (Raptor Pharmaceutical Inc., priority 2001, dated 2011) come the findings set out here.

The subject of one series is RBE4 cells. The series is described as follows: Competition of [125I]-p97 binding on rat brain endothelial cells (RBE4). As to conditions: competitor 10 micromolar, 2 hrs at 4° C. (FIG. 4). Here is the method: FIG. 4. Binding of p97 on rat brain endothelial cells. Binding p97 was performed with RBE4 that were pre-incubated 2 hrs in Ringer-Hepes. For the binding experiments, cells in 24-well microplates were incubated for 2 h at 4° C. in Ringer/Hepes in the presence of [^125I]-p97 (25 nM) and 10 micromolar concentrations of cold-p97, transferrin or lactoferin, respectively. At the end of the incubation, the cells were gently washed at 4° C. three times with 4 ml of cold-PBS. RBE4 cells were then lysed with Triton X-100 and the associated radioactivity of with cell lysates was determined.
RBE4 cells were grown in monolayers in 24 wells plastic tissue culture flasks at 37° C. under 5% CO2 in minimum essential medium Alpha and Ham's F10 (1:1) supplemented with 10% heat inactivated fetal bovine serum. For p97 binding experiments, RBE4 cells were pre-incubated at 37° C. for 2 hrs in Ringer/Hepes. ^125I-p97 in 200 μl of Ringer/Hepes was added to RBE4 cells for 2 hrs at 4° C. in the presence or absence of high concentration of cold-p97, human holo-transferrin or human lactoferrin. After the incubation, the cells were washed 4 times with PBS and the ^125I-p97 associated with the cells was measured.

Series [1] deals with BBCEC monolayers. The series is described as follows: Accumulation of ligands in BBCEC monolayers. The class given is cell-based, bovine. As to conditions: for Accumulation in the cell monolayer of heat denatured ligand compared to normal ligand: ligand boiled 30 mins, 37° C. (FIG. 7). Here is the method: FIG. 7 illustrates the results of experiments where the ligands p97, Lf and Tf were heated or not heated prior to the binding study. In all cases, binding experiments were conducted in the transwell apparatus as described previously, with the exception that binding was conducted at either 4° C. or at 37° C. For the 37° C. trial, a separate experiment was conducted where the ligand was boiled for 30 mins then rapidly cooled prior to administration on the transwell plates.
(§1) FIG. 13 illustrates the transcytosis and accumulation of p97 and transferrin in BBCEC monolayers. FIG. 13a, Transcytosis experiments were performed at 37° C. (solid bars) or 4° C. (white bars). [^125I]-p97 or bovine [^125I]-holo-transferrin (1 mg/ml) was added to the upper side of the cell-covered filter. At the end of the experiment, radiolabelled proteins were measured in the lower chamber of each well by TCA precipitation (n=4). Controls were also performed at 37° C. with denatured [^125I]-p97 or bovine [^125I]-holo-transferrin boiled for 30 min (grey bars) (n=2); FIG. 13b, Biospecific interaction analysis was performed with native or boiled p97 for the indicated times. MAb L235 (5 μg) was immobilized on a sensor chip (SM5) using standard procedures incorporating NHS, EDC and ethanolamine. Native and boiled p97 (5 to 30 min) diluted at 1 mg/ml in Ringer/Hepes was cooled and injected into the BIAcore. The surface plasmon resonance response obtained for native p97 and boiled p97 was plotted (in relative units (RU)) as a function of time; FIG. 13c, The accumulation of both proteins into BBEC cells were also measured. Briefly, after incubation at 37° C. (solid bars) or 4° C. (white bars) with either [^125I]-protein, cells were washed four times with cold PBS. Accumulation of both denatured proteins (grey bars) was also measured at 37° C. Filters were then removed, and the radioactivity associated with the cells was quantified (n=3).
In all cases, binding experiments were conducted in the transwell apparatus as described previously, with the exception that binding was conducted at either 4° C. or at 37° C. For the 37° C. trial, a separate experiment was conducted where the ligand was boiled for 30 mins then rapidly cooled prior to administration on the transwell plates.

The subject of series [2] is BBCEC monolayers. The series is described as follows: Transcytosis across BBCEC monolayers (in vitro BBB model). As to conditions: for Effect on transcytosis of 125I-p97: competitor 5 micromolar (FIG. 10a, 10b). The class given is cell-based, bovine.
Source text: FIG. 10 assesses the ability of several agents to interfere with p97 transyctosis. FIG. 10a, transcytosis of I125-P97 was compared in the presence of cold p97 (5 micromolar), Lf (5 micromolar), and Tf (5 micromolar). […] FIG. 10c, RAP, a known poly-peptide inhibitor of the LDL-Receptor family was applied to the cells (25 micrograms/ml).
FIG. 11 examines the accumulation and transcytosis of p97. FIG. 11a, of [^125I]-p97, [^125I]-BSA and [^125I]-holo-transferrin one hour after i.v. injection. The radioactivity in brain was compared between the three compounds. (n=3); FIG. 11b, Accumulation of p97 and transferrin into the mouse brain parenchyma. In situ brain perfusion was performed with human [^125I]-p97 or [^125I]-holo-transferrin at a final concentration of 10 nM via a catheter inserted in the right common carotid artery. The volume of distribution (VD) of [^125I]-proteins were obtained in the whole brain homogenate (white bars), in brain capillaries (solid bars) and in brain parenchyma (hatched bars) after isolation of the right hemisphere and capillary depletion. Results were obtained for p97 (n=10) and for holo-transferrin (n=6); FIG. 11c, Transcytosis of p97 across BBCEC monolayers. Transcytosis experiments were performed 37° C. (open circles) and 4° C. (closed circles) with BBCEC monolayers. [^125I]-p97 (1 mg/ml) was added to the upper side of the cell-covered filter. One representative experiment is shown (n=4); FIG. 11d, Preferential transport of p97 across the BBCEC monolayers. Apical-to-basal and basal-to-apical transport of [^125I]-p97 (25 nM) was measured for 2 hrs at 37° C. At the end of the experiment, [^125I]-p97 was assessed in the lower or upper chambers of each well by TCA precipitation (n=4).
as §1
FIG. 14 illustrates the stability of p97 and integrity of the BBCEC monolayers following p97 transcytosis. FIG. 14a, Transcytosis experiments were performed at 37° C. and 4° C. by adding p97 (1 mg/ml) to the upper compartment. At the end of the experiment, 50 μl from each lower chamber was used for SDS-polyacrylamide gel electrophoresis. After electrophoresis, the gels were stained with Coomassie Blue. A standard curve was also made with known amounts of recombinant p97 (0-2 μg); FIG. 14b. The gels were dried and scanned to quantify the amount of intact p97 that crossed the BBCEC monolayers at 37° C. and 4° C. (n=3); FIG. 14c, Effect of p97 on sucrose permeability of BBCE cell monolayers co-cultured with astrocytes. […]

“Also recorded” adds a separate entry of the source.

B1: lactoferrin: lactoferrin (Lf), LRP ligand used as competitor (protein, UniProt P02788 20-710, looked up)
Lactotransferrin: GRRRSVQWCAVSQPEATKCFQWQRNMRKVRGPPVSCIKRDSPIQCIQAIAENRADAVTLDGGFIYEAGLAPYKLRPVAAEVYGTERQPRTHYYAVAVVKKGGSFQLNELQGLKSCHTGLRRTAGWNVPIGTLRPFLNWTGPPEPIEAAVARFFSASCVPGADKGQFPNLCRLCAGTGENKCAFSSQEPYFSYSGAFKCLRDGAGDVAFIRESTVFEDLSDEAERDEYELLCPDNTRKPVDKFKDCHLARVPSHAVVARSVNGKEDAIWNLLRQAQEKFGKDKSPKFQLFGSPSGQKDLLFKDSAIGFSRVPPRIDSGLYLGSGYFTAIQNLRKSEEEVAARRARVVWCAVGEQELRKCNQWSGLSEGSVTCSSASTTEDCIALVLKGEADAMSLDGGYVYTAGKCGLVPVLAENYKSQQSSDPDPNCVDRPVEGYLAVAVVRRSDTSLTWNSVKGKKSCHTAVDRTAGWNIPMGLLFNQTGSCKFDEYFSQSCAPGSDPRSNLCALCIGDEQGENKCVPNSNERYYGYTGAFRCLAENAGDVAFVKDVTVLQNTDGNNNEAWAKDLKLADFALLCLDGKRKPVTEARSCHLAMAPNHAVVSRMDKVERLKQVLLHQQAKFGRNGSDCPDKFCLFQSETKNLLFNDNTECLARLHGKTTYEKYLGPQYVAGITNLKKCSTSPLLEACEFLRK
For B1, the “Inhibition of [125I]-p97 binding to RBE4 cells” value in the series with RBE4 cells is “competitively inhibit”. Further, the “Accumulation of Lf compared with p97 at the end of the experiment” value with BBCEC monolayers [1] (FIG. 7) is on record as “almost twice as high”. In addition, the “Accumulation in the cell monolayer of heat denatured ligand compared to normal ligand” value with BBCEC monolayers [1] is reported as “significantly lower accumulation”. For the same molecule, in the series on BBCEC monolayers [2], the “Effect on transcytosis of 125I-p97” value is on record as “only the cold p97 successfully reduced”.

B2: p97: recombinant human melanotransferrin (p97), provided by Synapse Technologies (protein, UniProt P08582 20-709, looked up)
Melanotransferrin: GMEVRWCATSDPEQHKCGNMSEAFREAGIQPSLLCVRGTSADHCVQLIAAQEADAITLDGGAIYEAGKEHGLKPVVGEVYDQEVGTSYYAVAVVRRSSHVTIDTLKGVKSCHTGINRTVGWNVPVGYLVESGRLSVMGCDVLKAVSDYFGGSCVPGAGETSYSESLCRLCRGDSSGEGVCDKSPLERYYDYSGAFRCLAEGAGDVAFVKHSTVLENTDGKTLPSWGQALLSQDFELLCRDGSRADVTEWRQCHLARVPAHAVVVRADTDGGLIFRLLNEGQRLFSHEGSSFQMFSSEAYGQKDLLFKDSTSELVPIATQTYEAWLGHEYLHAMKGLLCDPNRLPPYLRWCVLSTPEIQKCGDMAVAFRRQRLKPEIQCVSAKSPQHCMERIQAEQVDAVTLSGEDIYTAGKTYGLVPAAGEHYAPEDSSNSYYVVAVVRRDSSHAFTLDELRGKRSCHAGFGSPAGWDVPVGALIQRGFIRPKDCDVLTAVSEFFNASCVPVNNPKNYPSSLCALCVGDEQGRNKCVGNSQERYYGYRGAFRCLVENAGDVAFVRHTTVFDNTNGHNSEPWAAELRSEDYELLCPNGARAEVSQFAACNLAQIPPHAVMVRPDTNIFTVYGLLDKAQDLFGDDHNKNGFKMFDSSNYHGQDLLFKDATVRAVPVGEKTTYRGWLGLDYVAALEGMSSQQC
On to B2, for which the “Inhibition of [125I]-p97 binding to RBE4 cells” value with RBE4 cells is listed as “competitively inhibit”. In the series with BBCEC monolayers [1], the “Accumulation in the cell monolayer of heat denatured ligand compared to normal ligand” value is given as “significantly lower accumulation”. Also, the “Accumulation in BBCE cells” value in the series with BBCEC monolayers [1] (native proteins (FIG. 13c)) is listed as 5.7 μg/cm2. For the same molecule, in the series on BBCEC monolayers [2] (25 nM, after 2 hrs at 37° C. (FIG. 11d)), the “[125I]-p97 transport apical-to-basolateral relative to basolateral-to-apical” value is given as “about 3 fold”. Besides, the “Temperature dependence of p97 transcytosis” value with BBCEC monolayers [2] (37° C. versus 4° C., apical to basolateral) is “significantly higher at 37 °C than at 4 °C; also recorded: dramatic reduction”. In addition, the “Transport from the apical to the basolateral surface of ECs compared with transferrin” value with BBCEC monolayers [2] (37° C., 1 mg/ml (FIG. 13a)) was “much higher than for transferrin”. Besides, in the series with BBCEC monolayers [2] (FIG. 9), the “Saturability of p97 transcytosis” value is reported as “saturable phenomenon”. The “Degradation of p97 after transcytosis” value in the series on BBCEC monolayers [2] (SDS-PAGE of lower compartment, 30-120 min (FIG. 14a)) is “no apparent degradation”. Also, the “Effect of heat-denaturation on passage through BBCEC monolayers” value in the series with BBCEC monolayers [2] (boiled 30 min, 37° C. (FIG. 13a)) is listed as “reduced the passage”. Also, the “Effect on transcytosis of 125I-p97” value in the series on BBCEC monolayers [2] is recorded as “successfully reduced”. In addition, the “Membrane bound p97 transcytosed” value in the series with BBCEC monolayers [2] (in 10 minutes (FIG. 20)) was found to be 80%. In addition, in the series on BBCEC monolayers [2] (p97 1 mg/ml, gel densitometry (FIG. 14b)), the “Total amount of intact p97 after transendothelial transcytosis” value came out at 35 μg/cm^2.
